{"source": "patent US20250388628A1", "about": "(Genentech, published 2025)", "molecules": {"B1": {"name": "AAV9 VP3 VLP A273N/Q387K/E500R (other)", "VP3": "MASGGGAPVADNNEGADGVGSSSGNWHCDSQWLGDRVITTSTRTWALPTYNNHLYKQISNSTSGGSSNDNNYFGYSTPWGYFDFNRFHCHFSPRDWQRLINNNWGFRPKRLNFKLFNIQVKEVTDNNGVKTIANNLTSTVQVFTDSDYQLPYVLGSAHEGCLPPFPADVFMIPQYGYLTLNDGSKAVGRSSFYCLEYFPSQMLRTGNNFQFSYEFENVPFHSSYAHSQSLDRLMNPLIDQYLYYLSKTINGSGQNQQTLKFSVAGPSNMAVQGRNYIPGPSYRQQRVSTTVTQNNNSRFAWPGASSWALNGRNSLMNPGPAMASHKEGEDRFFPLSGSLIFGKQGTGRDNVDADKVMITNEEEIKTTNPVATESYGQVATNHQSAQAQAQTGWVQNQGILPGMVWQDRDVYLQGPIWAKIPHTDGNFHPSPLMGGFGMKHPPPQILIKNTPVPADPPTAFNKDKLNSFITQYSTGQVSVEIEWELQKENSKRWNPEIQYTSNYYKSNNVEFAVNTEGVYSEPRPIGTRYLTRNL", "notes": "VP3-only VLP; also called AN.QK.ER"}, "B2": {"name": "AAV2 VP3 VLP T592D/A593E (other)", "chain": "MATGSGAPMADNNEGADGVGNSSGNWHCDSTWMGDRVITTSTRTWALPTYNNHLYKQISSQSGASNDNHYFGYSTPWGYFDFNRFHCHFSPRDWQRLINNNWGFRPKRLNFKLFNIQVKEVTQNDGTTTIANNLTSTVQVFTDSEYQLPYVLGSAHQGCLPPFPADVFMVPQYGYLTLNNGSQAVGRSSFYCLEYFPSQMLRTGNNFTFSYTFEDVPFHSSYAHSQSLDRLMNPLIDQYLYYLSRTNTPSGTTTQSRLQFSQAGASDIRDQSRNWLPGPCYRQQRVSKTSADNNNSEYSWTGATKYHLNGRDSLVNPGPAMASHKDDEEKFFPQSGVLIFGKQGSEKTNVDIEKVMITDEEEIRTTNPVATEQYGSVSTNLQRGNRQAADEDVNTQGVLPGMVWQDRDVYLQGPIWAKIPHTDGHFHPSPLMGGFGLKHPPPQILIKNTPVPANPSTTFSAAKFASFITQYSTGQVSVEIEWELQKENSKRWNPEIQYTSNYNKSVNVDFTVDTNGVYSEPRPIGTRYLTRNL", "notes": "VP3-only VLP"}}, "key": {"[1]": {"target": "AAV receptor (AAVR) on HEK293 cells (Homo sapiens (Human)) (UniProt Q8IZA0)", "sequence (Q8IZA0 whole entry)": "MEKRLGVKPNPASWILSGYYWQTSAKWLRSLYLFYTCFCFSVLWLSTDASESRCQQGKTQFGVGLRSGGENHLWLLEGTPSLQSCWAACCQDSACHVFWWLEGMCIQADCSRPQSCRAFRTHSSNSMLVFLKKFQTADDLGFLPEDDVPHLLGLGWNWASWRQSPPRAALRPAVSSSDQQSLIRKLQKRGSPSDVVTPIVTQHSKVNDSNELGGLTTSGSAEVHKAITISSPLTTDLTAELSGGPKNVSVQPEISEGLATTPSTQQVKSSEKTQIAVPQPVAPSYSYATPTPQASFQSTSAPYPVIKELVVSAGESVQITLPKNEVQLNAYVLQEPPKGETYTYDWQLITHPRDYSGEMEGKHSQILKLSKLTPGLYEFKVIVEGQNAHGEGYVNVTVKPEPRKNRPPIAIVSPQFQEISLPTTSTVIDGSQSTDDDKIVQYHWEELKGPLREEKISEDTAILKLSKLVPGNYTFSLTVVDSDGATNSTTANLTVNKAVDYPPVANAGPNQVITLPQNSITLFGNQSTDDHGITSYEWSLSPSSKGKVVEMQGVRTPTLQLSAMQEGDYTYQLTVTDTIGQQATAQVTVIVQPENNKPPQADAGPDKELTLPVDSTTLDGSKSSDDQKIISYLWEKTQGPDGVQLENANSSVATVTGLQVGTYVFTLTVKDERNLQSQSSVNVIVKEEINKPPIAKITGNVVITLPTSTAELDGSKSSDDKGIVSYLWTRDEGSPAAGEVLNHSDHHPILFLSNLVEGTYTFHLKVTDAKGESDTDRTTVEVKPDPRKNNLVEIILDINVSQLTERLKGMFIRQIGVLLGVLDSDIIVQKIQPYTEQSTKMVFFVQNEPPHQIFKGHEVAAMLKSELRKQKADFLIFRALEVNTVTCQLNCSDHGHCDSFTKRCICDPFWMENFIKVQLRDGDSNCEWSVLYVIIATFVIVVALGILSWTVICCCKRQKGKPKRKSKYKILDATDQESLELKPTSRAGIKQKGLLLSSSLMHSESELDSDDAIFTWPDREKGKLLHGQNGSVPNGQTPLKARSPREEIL", "assay": "cell-based or functional assay"}, "[2]": {"target": "T1, AAV receptor (AAVR) fragment comprising the domains PKD1 and PKD2 (residues V305-V499) (Homo sapiens (Human), UniProt Q8IZA0 305-499)", "T1 sequence": "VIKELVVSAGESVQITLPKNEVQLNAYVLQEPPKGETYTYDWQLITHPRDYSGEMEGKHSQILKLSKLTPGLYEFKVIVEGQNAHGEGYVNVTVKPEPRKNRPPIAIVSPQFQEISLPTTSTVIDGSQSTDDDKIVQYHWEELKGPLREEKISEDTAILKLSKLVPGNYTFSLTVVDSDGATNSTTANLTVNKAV", "assay": "SPR; captured AAV9 VP3 VLP, AAVR analyte"}, "[3]": {"target": "T1, AAV receptor (AAVR) fragment comprising …", "assay": "SPR, three replicates; affinity against wild-type AAV9 VLP"}, "[4]": {"target": "T1, AAV receptor (AAVR) fragment comprising …", "assay": "SPR, single replicate; affinity against wild-type AAV9 VLP"}, "[5]": {"target": "T1, AAV receptor (AAVR) fragment comprising …", "assay": "SPR; against wild-type VLP"}, "[6]": {"target": "T1, AAV receptor (AAVR) fragment comprising …", "assay": "SPR, three replicates; captured AAV9 VP3 VLP, AAVR analyte"}, "[7]": {"target": "T1, AAV receptor (AAVR) fragment comprising …", "assay": "SPR, single replicate; captured AAV9 VP3 VLP, AAVR analyte"}, "[8]": {"target": "T1, AAV receptor (AAVR) fragment comprising …", "assay": "SPR; affinity against wild-type AAV2 VLP"}}, "data": [{"molecule": "AAV9 comprising a Q387K amino acid substitution mutation (full AAV with VP1, VP2 and VP3)", "values": [{"measurement": "Expression of a transgene (GFP) in transduced HEK293 cells", "setting": "[1]", "result": 3, "unit": "fold"}]}, {"molecule": "B1", "values": [{"measurement": "Kd", "setting": "[2]", "result": 20, "unit": "nM"}, {"measurement": "koff", "setting": "[2]", "result": 0.000667, "unit": "s⁻¹"}, {"measurement": "kon", "setting": "[2]", "result": 33300, "unit": "M⁻¹ s⁻¹"}, {"measurement": "Fold change vs WT", "setting": "[3]", "result": 117, "unit": "fold"}, {"measurement": "Fold change vs WT", "setting": "[4]", "result": 53, "unit": "fold"}, {"measurement": "KD Fold Change", "setting": "[5]", "result": 117, "unit": "fold"}, {"measurement": "Kd", "setting": "[6]", "result": 20, "unit": "nM"}, {"measurement": "koff", "setting": "[6]", "result": 0.000667, "unit": "s⁻¹"}, {"measurement": "kon", "setting": "[6]", "result": 33300, "unit": "M⁻¹ s⁻¹"}, {"measurement": "Kd", "setting": "[7]", "result": 80, "unit": "nM"}, {"measurement": "koff", "setting": "[7]", "result": 0.000962, "unit": "s⁻¹"}, {"measurement": "kon", "setting": "[7]", "result": 11800, "unit": "M⁻¹ s⁻¹"}]}, {"molecule": "B2", "values": [{"measurement": "Fold change vs WT", "setting": "[8]", "result": "~6", "unit": "fold"}]}]}
